Results: patent publication US20230242635A1 (published 2023)
Values belong to the binder of their own block, whether it stands above or below them.

Experiments:
[1] = biological target: canine FcRn complex (FcRn-α subunit and β-microglobulin), biotin labeled by BirA, captured on SA chip (Example 5) (canine); assay: SPR (Biacore), biotinylated FcRn captured on SA chip, IgG flowed, pH 6, 15 C
[2] = biological target: T1, canine FcRn complex (FcRn-α subunit and β-microglobulin), biotin labeled by BirA, captured on SA chip … (canine, UniProt A0A8I3PFR8 25-296, biotin label by BirA enzymatic biotinylation (BAP tag)); assay: SPR (Biacore), biotinylated FcRn captured on SA chip, IgG flowed, pH 7.4, 15 C
[3] = biological target: T1, canine FcRn complex (FcRn-α subunit and …); assay: SPR (Biacore), biotinylated FcRn captured on SA chip, IgG flowed, pH 6, 15 C
[4] = biological target: T1, canine FcRn complex (FcRn-α subunit and …); assay: SPR (Biacore), biotinylated FcRn captured on SA chip, IgG flowed, pH 7.4, 15 C; remark: listed apart in the source
[5] = biological target: T1, canine FcRn complex (FcRn-α subunit and …); assay: SPR (Biacore), biotinylated FcRn captured on SA chip, IgG flowed, pH 6, 15 C; remark: listed apart in the source

T1 sequence (A0A8I3PFR8 entry or part of it, one chain of several): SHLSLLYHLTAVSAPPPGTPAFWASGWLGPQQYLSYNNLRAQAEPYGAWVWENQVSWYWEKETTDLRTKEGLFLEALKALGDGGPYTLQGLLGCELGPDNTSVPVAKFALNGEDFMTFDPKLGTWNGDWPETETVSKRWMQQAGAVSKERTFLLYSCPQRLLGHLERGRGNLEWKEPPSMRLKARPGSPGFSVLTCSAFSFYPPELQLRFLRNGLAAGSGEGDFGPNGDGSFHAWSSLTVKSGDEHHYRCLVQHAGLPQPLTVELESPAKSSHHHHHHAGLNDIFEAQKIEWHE

Kd [1]: 40 nM
B1: caninized anti-IL31 antibody 11E12 (mAb1 of Table 5), canine IgGB, WT2 (antibody, part only; not given: light chain, part only)
heavy: EVQLVQSGAEVKKPGASVKVSCKTSGYTFKYYDINWVRQAPGAGLDWMGWIFPGDGGTKYNETFKGRVTLTADTSTSTAYMELSSLRAGDIAVYYCARGGTSVIRDAMDYWGQGTLVTVSSASTTAPSVFPLAPSCGSTSGSTVALACLVSGYFPEPVTVSWNSGSLTSGVHTFPSVLQSSGLYSLSSMVTVPSSRWPSETFTCNVAHPASKTKVDKPVPKRENGRVPRPPDCPKCPAPEMLGGPSVFIFPPKPKDTLLIARTPEVTCVVVDLDPEDPEVQISWFVDGKQMQTAKTQPREEQFNGTYRVVSVLPIGHQDWLKGKQFTCKVNNKALPSPIERTISKARGQAHQPSVYVLPPSREELSKNTVSLTCLIKDFFPPDIDVEWQSNGQQEPESKYRTTPPQLDEDGSYFLYSKLSVDKSRWQRGDTFICAVMHEALHNHYTQESLSHSPGK

Kd [2]: 175 nM
Kd [3]: 139 nM
B2: caninized anti-IL31 antibody 34D03 (mAb1), canine IgGB, N434A (antibody)
chain 1: EVQLVESGGDLVKPGGSLRLSCVASGFTFSNYGMSWVRQAPGKGLQWVATISYGGSYTYYPDNIKGRFTISRDNAKNTLYLQMNSLRAEDTAMYYCVRGYGYDTMDYWGQGTLVTVSSASTTAPSVFPLAPSCGSTSGSTVALACLVSGYFPEPVTVSWNSGSLTSGVHTFPSVLQSSGLYSLSSMVTVPSSRWPSETFTCNVAHPASKTKVDKPVPKRENGRVPRPPDCPKCPAPEMLGGPSVFIFPPKPKDTLLIARTPEVTCVVVDLDPEDPEVQISWFVDGKQMQTAKTQPREEQFNGTYRVVSVLPIGHQDWLKGKQFTCKVNNKALPSPIERTISKARGQAHQPSVYVLPPSREELSKNTVSLTCLIKDFFPPDIDVEWQSNGQQEPESKYRTTPPQLDEDGSYFLYSKLSVDKSRWQRGDTFICAVMHEALHAHYTQESLSHSPGK
chain 2: EIVMTQSPASLSLSQEEKVTITCKASQSVSFAGTGLMHWYQQKPGQAPKLLIYRASNLEAGVPSRFSGSGSGTDFSFTISSLEPEDVAVYYCQQSREYPWTFGQGTKLEIK

Kd [2]: 33700 nM
Kd [3]: 30.7 nM
B3: caninized anti-IL31 antibody 34D03 (mAb1), canine IgGB, N434F (antibody)
chain 1: EVQLVESGGDLVKPGGSLRLSCVASGFTFSNYGMSWVRQAPGKGLQWVATISYGGSYTYYPDNIKGRFTISRDNAKNTLYLQMNSLRAEDTAMYYCVRGYGYDTMDYWGQGTLVTVSSASTTAPSVFPLAPSCGSTSGSTVALACLVSGYFPEPVTVSWNSGSLTSGVHTFPSVLQSSGLYSLSSMVTVPSSRWPSETFTCNVAHPASKTKVDKPVPKRENGRVPRPPDCPKCPAPEMLGGPSVFIFPPKPKDTLLIARTPEVTCVVVDLDPEDPEVQISWFVDGKQMQTAKTQPREEQFNGTYRVVSVLPIGHQDWLKGKQFTCKVNNKALPSPIERTISKARGQAHQPSVYVLPPSREELSKNTVSLTCLIKDFFPPDIDVEWQSNGQQEPESKYRTTPPQLDEDGSYFLYSKLSVDKSRWQRGDTFICAVMHEALHFHYTQESLSHSPGK
chain 2: EIVMTQSPASLSLSQEEKVTITCKASQSVSFAGTGLMHWYQQKPGQAPKLLIYRASNLEAGVPSRFSGSGSGTDFSFTISSLEPEDVAVYYCQQSREYPWTFGQGTKLEIK

Kd [4]: 1900 nM
Kd [5]: 2.71 nM
B4: caninized anti-IL31 antibody (mAb1), canine IgGB, N434Y (antibody)
chain 1: EVQLVESGGDLVKPGGSLRLSCVASGFTFSNYGMSWVRQAPGKGLQWVATISYGGSYTYYPDNIKGRFTISRDNAKNTLYLQMNSLRAEDTAMYYCVRGYGYDTMDYWGQGTLVTVSSASTTAPSVFPLAPSCGSTSGSTVALACLVSGYFPEPVTVSWNSGSLTSGVHTFPSVLQSSGLYSLSSMVTVPSSRWPSETFTCNVAHPASKTKVDKPVPKRENGRVPRPPDCPKCPAPEMLGGPSVFIFPPKPKDTLLIARTPEVTCVVVDLDPEDPEVQISWFVDGKQMQTAKTQPREEQFNGTYRVVSVLPIGHQDWLKGKQFTCKVNNKALPSPIERTISKARGQAHQPSVYVLPPSREELSKNTVSLTCLIKDFFPPDIDVEWQSNGQQEPESKYRTTPPQLDEDGSYFLYSKLSVDKSRWQRGDTFICAVMHEALHYHYTQESLSHSPGK
chain 2: EIVMTQSPASLSLSQEEKVTITCKASQSVSFAGTGLMHWYQQKPGQAPKLLIYRASNLEAGVPSRFSGSGSGTDFSFTISSLEPEDVAVYYCQQSREYPWTFGQGTKLEIK

Kd [1]: 95.5 nM
B5: caninized anti-NGF antibody ZTS-841 (mAb2 of Table 4), canine IgGA, WT (antibody, from a related filing, part only)
heavy: EVQLVESGGDLVKPGGSLRLSCVASGFTFSSHGMHWVRQSPGKGLQWVAVINSGGSSTYYTDAVKGRFTISRDNAKNTVYLQMNSLRAEDTAMYYCAKESVGGWEQLVGPHFDYWGQGTLVIVSSASTTAPSVFPLAPSCGSTSGSTVALACLVSGYFPEPVTVSWNSGSLTSGVHTFPSVLQSSGLHSLSSMVTVPSSRWPSETFTCNVVHPASNTKVDKPVFNECRCTDTPPCPVPEPLGGPSVLIFPPKPKDILRITRTPEVTCVVLDLGREDPEVQISWFVDGKEVHTAKTQSREQQFNGTYRVVSVLPIEHQDWLTGKEFKCRVNHIDLPSPIERTISKARGRAHKPSVYVLPPSPKELSSSDTVSITCLIKDFYPPDIDVEWQSNGQQEPERKHRMTPPQLDEDGSYFLYSKLSVDKSRWQQGDPFTCAVMHETLQNHYTDLSLSHSPGK
VL: QSVLTQPTSVSGSLGQRVTISCSGSTNNIGILGASWYQLFPGKAPKLLVYGNGNRPSGVPDRFSGADSGDSVTLTITGLQAEDEADYYCQSFDTTLGAHVFGGGTHLTVL

Kd [1]: 71 nM
B6: caninized anti-NGF antibody ZTS-841 (mAb2 of Table 4), canine IgGD, WT (antibody, from a related filing, part only)
heavy: EVQLVESGGDLVKPGGSLRLSCVASGFTFSSHGMHWVRQSPGKGLQWVAVINSGGSSTYYTDAVKGRFTISRDNAKNTVYLQMNSLRAEDTAMYYCAKESVGGWEQLVGPHFDYWGQGTLVIVSSASTTAPSVFPLAPSCGSTSGSTVALACLVSGYFPEPVTVSWNSGSLTSGVHTFPSVLQSSGLYSLSSTVTVPSSRWPSETFTCNVVHPASNTKVDKPVPKESTCKCISPCPVPESLGGPSVFIFPPKPKDILRITRTPEITCVVLDLGREDPEVQISWFVDGKEVHTAKTQPREQQFNSTYRVVSVLPIEHQDWLTGKEFKCRVNHIGLPSPIERTISKARGQAHQPSVYVLPPSPKELSSSDTVTLTCLIKDFFPPEIDVEWQSNGQPEPESKYHTTAPQLDEDGSYFLYSKLSVDKSRWQQGDTFTCAVMHEALQNHYTDLSLSHSPGK
VL: QSVLTQPTSVSGSLGQRVTISCSGSTNNIGILGASWYQLFPGKAPKLLVYGNGNRPSGVPDRFSGADSGDSVTLTITGLQAEDEADYYCQSFDTTLGAHVFGGGTHLTVL

Kd [1]: 52 nM
B7: caninized anti-NGF antibody ZTS-841 (mAb2 of Table 4), canine IgGC, WT (antibody, from a related filing, part only)
heavy: EVQLVESGGDLVKPGGSLRLSCVASGFTFSSHGMHWVRQSPGKGLQWVAVINSGGSSTYYTDAVKGRFTISRDNAKNTVYLQMNSLRAEDTAMYYCAKESVGGWEQLVGPHFDYWGQGTLVIVSSASTTAPSVFPLAPSCGSQSGSTVALACLVSGYIPEPVTVSWNSVSLTSGVHTFPSVLQSSGLYSLSSMVTVPSSRWPSETFTCNVAHPATNTKVDKPVAKECECKCNCNNCPCPGCGLLGGPSVFIFPPKPKDILVTARTPTVTCVVVDLDPENPEVQISWFVDSKQVQTANTQPREEQSNGTYRVVSVLPIGHQDWLSGKQFKCKVNNKALPSPIEEIISKTPGQAHQPNVYVLPPSRDEMSKNTVTLTCLVKDFFPPEIDVEWQSNGQQEPESKYRMTPPQLDEDGSYFLYSKLSVDKSRWQRGDTFICAVMHEALHNHYTQISLSHSPGK
VL: QSVLTQPTSVSGSLGQRVTISCSGSTNNIGILGASWYQLFPGKAPKLLVYGNGNRPSGVPDRFSGADSGDSVTLTITGLQAEDEADYYCQSFDTTLGAHVFGGGTHLTVL
